In assay [1] the target is recombinant nucleosome labelled with Oregon Green 488 on histone H4 Q27C (Xenopus) (UniProt P62799). Briefly: other fluorescence titration.
The target in assay [2] is acidic patch mutant nucleosome (H2A E61A, E64A, D90, E92A) (Xenopus) (UniProt P06897). The assay can be described thus: other fluorescence titration.
Assay [3] has the same target.

On to “Set8(153-352) R179A, K180A (from UniProt Q9NQR1-2 153-352) (domain or fragment)”, for which the fold decrease of nucleosome binding affinity against Set8(153-352) in assay [1] is 2.5 fold.

Broadly, the Kd is the equilibrium constant for the complex coming apart. As to “Set8(153-352) R188A, R189A (from UniProt Q9NQR1-2 153-352) (domain or fragment)”, the Kd in assay [1] was determined as 2500 nM. With “Set8(153-352) H347F (from UniProt Q9NQR1-2 153-352) (domain or fragment)”, the dissociation constant (Kd) in assay [1] was determined as 4.5 nM. Regarding “Set8(153-352) (from UniProt Q9NQR1-2 153-352) (domain or fragment)”, the Kd in assay [2] amounted to 1300 nM; in assay [1], 7.9 nM. This substance came in with a histone methyltransferase activity on acidic patch mutant nucleosomes in assay [3] of 5.4%.

For “Set8(175-352) (from UniProt Q9NQR1-2 175-352) (domain or fragment)”, the Kd in assay [1] worked out at 1800 nM. As to “full length Set8 (from UniProt Q9NQR1-2 1-352) (enzyme)”, the dissociation constant (Kd) is 60 nM in assay [2] and 5.3 nM in assay [1].

Source of the values: PMC5549631.
